{
  "source": "patent US10538591B2",
  "about": "“Anti-fibulin-3 antibodies and uses thereof” (THE BRIGHAM AND WOMEN'S HOSPITAL, INC., priority 2014, dated 2020)",
  "molecules": {"B1": {"name": "mAb428.2: mouse monoclonal IgG1 kappa antibody against human fibulin-3 peptide SEQ ID NO:2; VH SEQ ID NO: 3, VL SEQ ID NO: 4 (antibody, V domains shown)", "VH": "QIQLVQSGPELKKPGETVKISCKASGYSFTTYGMSWVKQAPGKGLKWMGWINTYSGVPTYADDFKGRFAFFLETSASTAYLQINNLKNEDTATYFCARWVDYWGQGTTLTVSS", "VL": "DIKMTQSPSSMYASLGERVTITCKASQDIKSYLSWHQQKPWKSPKTLIYYATSLADGVPSRFSGSGSGQDYSLTISSLESDDTATYYCLQHGKSPYTFGGGTKLEIK"}},
  "key": {"Normal human astrocytes": {"system": "Normal human astrocytes", "test": "Viability of normal human astrocytes", "format": "cell-based", "details": "mAb428.2, conditions not given", "experimental": "Normal human astrocytes and glioma cell lines (U251MG, U87MG and CNS1) were cultured as adherent cells in 96-well plates (10,000 cells/well). Three primary cultures of glioma-initiating cells (GBM8, GBM9 and GBM34) were cultured in suspension using appropriate medium in 96-well plates (25,000 cells/well). All cells were exposed to anti-Fib3/911 (50 μg/mL) or its pre-immune serum for 72 h, followed by measurement of cell viability as indicated in FIG. 5. […] In contrast, normal astrocytes were not affected by the antibody (** p<0.01; *** p<0.001, one-way ANOVA for each cell line)\nAntibodies against fibulin-3 induce cytotoxicity in a wide range of glioma cells but not in normal cells. […] This antibody was added to cultures of different glioma cell lines (U251MG, U87MG, CNS1) as well as cultures of glioma initiating cells that produce large amounts of fibulin-3 (GBM8, GBM9, GBM34). […] Vehicle control (PBS) and the pre-immune serum of anti-fibulin-3/91I were tested as controls. Cell viability was measured after 72 hours. […] Neither the vehicle nor the pre-immune serum affected cell viability (FIG. 7)."}, "[1]": {"system": "fibulin-3-induced Notch signaling", "test": "Notch-reporter luminescent assay in CNS1 glioma cells transfected with fibulin-3 cDNA", "format": "cell-based", "details": "for effect on fibulin-3-induced Notch activity: monoclonal antibody 100 μg/ml, 0, 2, 6 and 24 h", "experimental": "Glioma cells (CNS I line) carrying a Notch-reporter luminescent system were transfected with fibulin-3 cDNA (or a control plasmid) and incubated in serum-free conditions for 24 h.\nAntibodies against fibulin-3 block the molecular mechanism triggered by this protein. To confirm whether the cytotoxic effects were related to specific inhibition of the molecular mechanisms of fibulin-3, the antibody anti-Fib3/911 was added to glioma cells (CNS1 cell line) that had been transfected to overexpress fibulin-3. Overexpression of fibulin-3 in the glioma cells increased Notch signaling activity as expected.\nGlioma cells (CNS1 line) carrying a Notch-driven luminescent reporter system were transfected with fibulin-3 cDNA (Fib3 OE) or a control plasmid (Control) and incubated in serum-free conditions for 24 h. The following day the antibodies anti-Fib3/911 (50 μg/ml) or mAb428.3C11 (100 μg/ml) were added to the cultures and Notch activity was measured after 0, 2, 6, and 24 h.\nGlioma cells (CNS1 line) carrying a Notch-driven luminescent reporter system were transfected with fibulin-3 cDNA (Fib3 OE) or a control plasmid (Control) and incubated in serum-free conditions for 24 h. Results on the left panel show the effect of adding mAb428.2 (100 μg/ml), followed by measurement of Notch activity after 0, 2, 6, and 24 h. Results on the right panel show the effect of adding variable concentrations of mAb428.2 (0, 5, 10, 25, 50, and 100 μg/ml), followed by measurement of Notch activity after 6 h."}, "[2]": {"system": "NFkB signaling induced by fibulin-3", "test": "NF-kB luminescent reporter in U251 glioma cells transfected with fibulin-3 cDNA", "format": "cell-based", "details": "100 μg/ml, 0, 2, 6 and 24 h", "experimental": "Glioma cells (U251 line) were transfected with a luminescent reporter plasmid driven by NF-kB signaling (pGL4.32[luc2P/NF-κB-RE/Hygro], PROMEGA). Cells were co-transfected with plasmids carrying fibulin-3 cDNA (Fib3 OE) or a control cDNA (Control) and incubated in serum-free conditions for 24 h. The following day mAb428.2 (100 μg/ml) was added to the cultures and NFkB signaling activity was measured after 0, 2, 6, and 24 h."}, "[3]": {"details": "mouse, in vivo"}, "[4]": {"system": "GBM34 glioblastoma stem cells", "test": "Intravenous injection in subcutaneous GBM34 xenografts, growth and overall survival", "format": "in vivo, Athymic mice", "experimental": "Athymic mice received SQ bilateral implants of GBM34 glioblastoma stem cells (1×10^6 cells/50 μl). Tumors were allowed to grow until they reached a volume of 100 mm^3. Animals (N=5/group) were then injected with mAb428.2 (30 mg/kg) or non-immune mouse IgG1 every day, for a total of 8 days (total: 8 injections). Mice were monitored for tumor growth and sacrificed when any of their tumors reached a length >=20 mm. Long-term survivors (>40 days) in which length was not increasing above 20 mm were euthanized when tumors reached width >=15 mm or presented ulcerations. […] Curves for overall survival were compared by long-rank test"}, "[5]": {"system": "GBM34 glioblastoma stem cells", "test": "Intratumoral injection in subcutaneous GBM34 xenografts", "format": "in vivo, Athymic mice", "experimental": "Athymic mice received sub-cutaneous (SQ) bilateral implants of GBM34 glioblastoma stem cells (1×10^6 cells/50 μl). Tumors were allowed to grow until they reached a volume of 100 mm^3. Animals (N=5/group) were then injected with mAb428.2 (10 mg/kg) in the left-side tumor and non-immune mouse IgG1 in the right-side tumor, every two days (total: 4 injections). Mice were sacrificed when any of their tumors reached a length >18 mm. […] Growth curves were analyzed by repeated-measures ANOVA and final parameters were compared by paired T-test.\nAthymic mice received SQ bilateral implants of GBM34 glioblastoma stem cells (1×10^6 cells/50 μl). Tumors were allowed to grow until they reached a volume of 100 mm^3. Animals (N=3/group) were then injected with mAb428.3C11 (30 mg/kg) in the left-side tumor and non-immune mouse IgG1 in the right-side tumor, every two days (total: 3 injections). Mice were sacrificed when any of their tumors reached a length >=20 mm. […] Growth curves were analyzed by repeated-measures ANOVA and final parameters were compared by paired T-test."}, "[6]": {"system": "GBM34 glioblastoma stem cells", "test": "BrdU uptake in tumors after intravenous treatment", "format": "in vivo, mice", "details": "8×30 mg/kg IV, BrdU 1 h before euthanasia", "experimental": "Control and tumor mice studied in FIG. 11 for overall survival (treated with antibody 8×30 mg/kg, IV) were injected with 5-bromo-2′-deoxyuridine (BrdU, 50 mg/kg, IP) 1 h before euthanasia. BrdU staining of actively dividing cells. Tumors from 3 mice per group were processed for immunohistochemistry to detect BrdU uptake, corresponding to actively dividing cells. Tissue sections were imaged by fluorescence microscopy and quantified blindly using ImageJ image analysis software. DAPI was used to stain cell nuclei. Results were expressed as number of BrdU-positive cells per unit of tumor area. […] (Data not shown)."}},
  "note": "Entries after “also recorded” stand apart in the source; their conditions may differ.",
  "data": [
    {"molecule": "B1", "values": [
      {"measurement": "effect on normal astrocytes", "setting": "Normal human astrocytes", "result": "without effects on normal astrocytes"},
      {"measurement": "dependence of Notch inhibition", "setting": "[1]; 0, 5, 10, 25, 50 and 100 μg/ml, 6 h, 100 μg/ml over 0-24 h", "result": "time- and concentration-dependent"},
      {"measurement": "effect on fibulin-3-induced Notch activity", "setting": "[1]", "result": "blocked fibulin-3-dependent Notch activation; also recorded: strong inhibitory effect"},
      {"measurement": "effect on fibulin-3-induced Notch activity", "setting": "[1]; listed as mAb428.3C11", "result": "blocked"},
      {"measurement": "fibulin-3 effect on Notch activation", "setting": "[1]; t=4 h, anti-Fib3/911 50 μg/ml, mAb428.3C11 100 μg/ml", "result": "completely abolished fibulin-3 effects on Notch activation"},
      {"measurement": "levels of Notch activity", "setting": "[1]; t=24 h, anti-Fib3/911 50 μg/ml, mAb428.3C11 100 μg/ml", "result": "indistinguishable from controls"},
      {"measurement": "effect on fibulin-3-induced NFkB signaling", "setting": "[2]", "result": "blocking of this effect"},
      {"measurement": "accumulation in skin or connective tissues", "setting": "[3]", "result": "did not accumulate in these tissues"},
      {"measurement": "amount detected through the skull", "setting": "[3]", "result": "very small but higher than the amount of a control IgG1 antibody"},
      {"measurement": "detection in intracranial tumors", "setting": "[3]", "result": "not detected in significant amounts"},
      {"measurement": "detection in subcutaneous tumors", "setting": "[3]; 2.5 mg/kg", "result": "still detectable with high intensity of fluorescence"},
      {"measurement": "time of accumulation in the liver", "setting": "[3]; 2.5 mg/kg", "result": ">= 6"},
      {"measurement": "time of accumulation of fluorescence in the bladder", "setting": "[3]; 2.5 mg/kg", "result": 2, "unit": "h"},
      {"measurement": "time of clearance from bladder and liver", "setting": "[3]; 2.5 mg/kg", "result": ">= 24 h"},
      {"measurement": "overall survival compared to control IgG1", "setting": "[4]; 30 mg/kg IV every day, 8 injections", "result": "extended overall survival two-fold; also recorded: significant prolongation of overall survival"},
      {"measurement": "tumor growth", "setting": "[4]; IV 8×30 mg/kg", "result": "significant delay in tumor growth"},
      {"measurement": "tumor volume and weight compared to control IgG1", "setting": "[5]; 10 mg/kg intratumoral every two days, 4 injections", "result": "reduction in tumor volume and weight"},
      {"measurement": "tumor volume and weight compared to control IgG1", "setting": "[5]; 30 mg/kg intratumoral every two days, 3 injections", "result": "reduction in tumor volume and weight"},
      {"measurement": "median volume reduction", "setting": "[5]; direct intratumoral injection, GBM stem cell xenograft", "result": 45, "unit": "%"},
      {"measurement": "tumor cell division (BrdU-positive cells per unit of tumor area)", "setting": "[6]", "result": "significant decrease in tumor cell division"}
    ]}
  ]
}
